According to patent publication US20240182561A1 (Regeneron, published 2024):

Key:
[1] = biological target: T1, human CACNG1 expressed on cells (human, UniProt Q06432 1-222); assay: cell-based or functional assay
[2] = biological target: T2, mouse CACNG1 expressed on cells (mouse, UniProt O70578 1-223); assay: cell-based or functional assay
T2 sequence (looked up): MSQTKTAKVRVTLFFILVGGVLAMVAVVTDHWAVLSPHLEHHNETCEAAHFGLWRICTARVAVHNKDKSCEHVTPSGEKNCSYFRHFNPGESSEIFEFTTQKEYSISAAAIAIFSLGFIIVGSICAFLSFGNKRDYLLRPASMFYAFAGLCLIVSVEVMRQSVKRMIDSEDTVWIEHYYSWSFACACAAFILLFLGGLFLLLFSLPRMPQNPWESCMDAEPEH

[3] = biological target: T1, human CACNG1 expressed on cells; assay: imaging cell binding, HEK293/hCACNG1
Method: (§1) HuSKM were seeded in collagen-coated 96-well plates (Greiner Bio-One #655956) at 8,500 cells/well and grown for 24 hours. The growth media was changed to MyoTonic Differentiation Media (Cook Myosite Cat #MD-5555) and replaced every 2 days. Myotubes were assayed after 6 days of differentiation. C2C12 mouse myoblasts were maintained in DMEM with 10% FBS and 1% penicillin-streptomycin supplement and grown in a 37° C. incubator with 5% CO₂. C2C12 cells were seeded in collagen-coated 96-well plates (Greiner Bio-One #655956) at 10,000 cells/well for the cell binding assay and 5,000 cells/well for the cell killing assay. After 24 hours, growth media was replaced with differentiation media (DMEM with 2% horse serum) and placed in a 37° C. incubator with 7.5% CO₂. C2C12 myotubes were assayed after 3 days of differentiation. HEK293/hCACNG1, HEK293/mCACNG1, and HEK293 cells were seeded at 10,000 cells (cell binding assay) or 2,000 (cell killing assay) per well in 96-well black collagen coated plates (Greiner Bio-One, cat #655956) in complete growth media and grown overnight at 37° C. in 5% CO₂.
(§2) Relative binding of anti-CACNG1 antibodies was assessed across the entire panel of cell lines via imaging analysis. […] After one wash with antibody dilution buffer, samples were fixed in CytoFix (BD Biosciences, Cat #554655) diluted 1:1 in PBS and supplemented with a 1:2000 dilution of Hoechst 33342 (Thermo, Cat #H1399) for 20 minutes on ice. Images were acquired with a 10× objective on the Opera Phenix (Perkin Elmer) and relative fluorescence units (RFU) was determined using Harmony software (Perkin Elmer).

[4] = biological target: T2, mouse CACNG1 expressed on cells; assay: imaging cell binding, HEK293/mCACNG1
Method: as §1, §2

[5] = biological target: T1, human CACNG1 expressed on cells; assay: imaging cell binding, HuSKM myotubes
Method: as §1, §2

[6] = biological target: T3, nanodisc embedded human CACNG1 expressed with a C-terminal PADRE-Flag-His tag (human, UniProt Q06432 1-222); assay: SPR, anti-His-captured nanodisc, 25 C
T3 construct: Captured on an anti-His Biacore surface; also called human CACNG1 nanodisc; CACNG1 nanodisc; not shown: C-terminal tag
Method: Equilibrium dissociation constants (KD values) for nanodisc embedded human CACNG1 expressed with a C-terminal […] tag (human CACNG1 nanodisc; concentration 0.82 mg/ml) binding to purified anti-CACNG1 antibodies were determined using a real-time surface plasmon resonance biosensor technology with a Biacore T200 instrument. The CM5 Biacore sensor surface was derivatized by amine coupling with a monoclonal mouse anti-His antibody (Cytiva; Marlborough, MA). All Biacore binding studies were performed in a buffer composed of 0.01M HEPES, 0.15M NaCl, 1 mM CaCl₂, 0.5 mM MgCl₂, pH 7.4 (HBS-N++ running buffer). Different concentrations of anti-CACNG1 antibodies (ranging from 300 nM to 12 nM in 5-fold serial dilutions) prepared in HBS-N++ running buffer were injected over the captured human CACNG1 nanodisc at a flow rate of 30 μL/minute. Antibody association was monitored for 2 minutes while dissociation was monitored in HBS-N++ running buffer for 5 minutes. At the end of each cycle, the human CACNG1 nanodisc capture surface was regenerated using three 10 second injections of 10 mM Gly pH1.5. All binding kinetics experiments were performed at 25° C.
The specific SPR-Biacore sensorgrams were obtained by a double referencing procedure. The double referencing was performed by first subtracting the signal of each injection over a reference surface (anti-His) from the signal over the experimental surface (anti-His captured human CACNG1 nanodisc) thereby removing contributions from refractive index changes. In addition, running buffer injections were performed to allow subtraction of the signal changes resulting from the dissociation of captured antibodies from the coupled anti-His surface. Kinetic association (kₐ) and dissociation ([…]) rate constants were determined by fitting the real-time sensorgrams to a 1:1 binding model using Scrubber v2.0c curve fitting software. Binding dissociation equilibrium constants (KD) and dissociative half-lives (t %) were calculated from the kinetic rate constants as: […]

[7] = biological target: T2, mouse CACNG1 expressed on cells; assay: imaging cell binding, C2C12 mouse myotubes
Method: as §1, §2

[8] = biological target: T2, mouse CACNG1 expressed on cells; assay: imaging cell binding, C2C12 mouse myotubes; remark: listed apart in the source
Method: as §1, §2

[9] = biological target: T1, human CACNG1 expressed on cells; assay: imaging cell binding, HuSKM myotubes; remark: listed apart in the source
Method: as §1, §2

[10] = biological target: T1, human CACNG1 expressed on cells; assay: imaging cell binding, HEK293/hCACNG1; remark: listed apart in the source
Method: as §1, §2

[11] = biological target: T1, human CACNG1 expressed on cells; assay: cell-based or functional assay; remark: listed apart in the source
[12] = biological target: T1, human CACNG1 expressed on cells; assay: cell-based or functional assay; remark: listed apart in the source
[13] = biological target: T1, human CACNG1 expressed on cells; assay: cell-based or functional assay; remark: listed apart in the source

T3 sequence (Q06432 whole entry): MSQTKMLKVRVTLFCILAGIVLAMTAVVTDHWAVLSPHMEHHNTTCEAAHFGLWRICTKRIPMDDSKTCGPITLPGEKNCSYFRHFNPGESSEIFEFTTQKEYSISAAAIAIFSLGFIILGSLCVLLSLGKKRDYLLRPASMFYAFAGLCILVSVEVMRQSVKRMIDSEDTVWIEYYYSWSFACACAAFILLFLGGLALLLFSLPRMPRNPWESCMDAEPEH
T1 sequence (Q06432 whole entry): as above

B1: H4H31265P2 (antibody, human IgG4 S228P, kappa, V domains shown)
VH: QVQLVESGGGVVQPGRSLRLSCTASGFTFRSYGMHWVRQAPGKGLEWVSVIWIDGNNIYYADSVKGRFTISRDNSKNTLYLQMDSLRAEDTAVYYCARRLAITSAAPFDYWGQGTLVTVSS
VL: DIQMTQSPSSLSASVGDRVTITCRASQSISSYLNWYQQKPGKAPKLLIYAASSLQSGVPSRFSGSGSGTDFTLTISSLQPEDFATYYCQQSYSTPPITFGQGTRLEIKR
notes: also called H4H31265P2/REGN5972 (lot H4H31265P2-L1)
% KILL, indirect cell killing, HEK293/hCACNG1 [1]: 94.6%
% KILL, indirect cell killing, HuSKM [1]: 95.6%
EC50/IC50, indirect cell killing, HEK293/hCACNG1 [1]: 0.00245 nM
EC50/IC50, indirect cell killing, HuSKM [1]: 0.56 nM
% KILL, indirect cell killing, C2C12 [2]: 3.4%
% KILL, indirect cell killing, HEK293/mCACNG1 [2]: 22.9%
EC50/IC50, indirect cell killing, C2C12 [2]: > 10 nM
EC50/IC50, indirect cell killing, HEK293/mCACNG1 [2]: > 1 nM
EC50 [3]: 11 nM
S/N [3]: 247 fold
S/N [4]: 1.2 fold
EC50 [5]: 3.3 nM
S/N [5]: 250 fold
Kd [6]: 81 nM
koff [6]: 0.0084 s⁻¹
kon [6]: 104000 M⁻¹ s⁻¹
mAb bound at 300 nM [6]: 14 RU
t1/2 [6]: 1.4 min
S/N [7]: 0.8 fold
binding result [7]: no binding (tested: 100 nM highest tested)

B2: REGN10717 (antibody, human IgG4 S228P, kappa)
heavy: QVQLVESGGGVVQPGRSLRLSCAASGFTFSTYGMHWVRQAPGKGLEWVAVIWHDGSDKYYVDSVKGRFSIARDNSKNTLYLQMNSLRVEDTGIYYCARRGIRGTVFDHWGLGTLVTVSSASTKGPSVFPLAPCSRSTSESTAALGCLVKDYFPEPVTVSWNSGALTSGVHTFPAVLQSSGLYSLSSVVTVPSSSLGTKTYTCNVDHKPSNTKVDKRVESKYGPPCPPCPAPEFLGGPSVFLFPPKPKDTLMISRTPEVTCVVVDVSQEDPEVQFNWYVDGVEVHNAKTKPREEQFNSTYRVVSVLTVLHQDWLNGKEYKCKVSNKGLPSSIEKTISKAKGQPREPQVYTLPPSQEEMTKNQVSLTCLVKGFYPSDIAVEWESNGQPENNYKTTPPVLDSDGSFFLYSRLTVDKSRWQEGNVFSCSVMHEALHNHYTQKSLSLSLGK
light: DIQMTQSPSTLSASVGDRVTLTCRASQSISNKLAWYQQKPGKAPNLLIYKASNLESGVPSRFSGSGSGTEFTLTISSLQPDDFATYYCQQYNSYSWTFGQGTKVEIKRTVAAPSVFIFPPSDEQLKSGTASVVCLLNNFYPREAKVQWKVDNALQSGNSQESVTEQDSKDSTYSLSSTLTLSKADYEKHKVYACEVTHQGLSSPVTKSFNRGEC
notes: hIgG4
% KILL, indirect cell killing, HEK293/hCACNG1 [1]: 97%
% KILL, indirect cell killing, HuSKM [1]: 99.6%
EC50/IC50, indirect cell killing, HEK293/hCACNG1 [1]: 0.000806 nM
EC50/IC50, indirect cell killing, HuSKM [1]: 0.0364 nM
% KILL, indirect cell killing, C2C12 [2]: 99.8%
% KILL, indirect cell killing, HEK293/mCACNG1 [2]: 96%
EC50/IC50, indirect cell killing, C2C12 [2]: 0.00356 nM
EC50/IC50, indirect cell killing, HEK293/mCACNG1 [2]: 0.00118 nM
EC50 [3]: > 100 nM
S/N [3]: 77.4 fold
EC50 [4]: > 100 nM
S/N [4]: 23.6 fold
EC50 [5]: 69 nM
S/N [5]: 292 fold
Kd [6]: 104 nM
koff [6]: 0.0304 s⁻¹
kon [6]: 294000 M⁻¹ s⁻¹
mAb bound at 300 nM [6]: 7 RU
t1/2 [6]: 0.4 min
EC50 [7]: > 100 nM
S/N [7]: 4.9 fold

B3: REGN10712 (antibody, human IgG4 S228P, lambda, V domains shown)
VH: QVQLVESGGGVVQPGRSLRLSCAASGFTFSTYGMYWVRQTPGKGLEWVTVISFDGNKKYYADSVKGRFTISRDNSKNTLFLQMNSLKTEDTAVYYCAKSSNWNYGSFDIWGQGTMVTVSS
VL: QSVLTQPPSVSGAPGQRVTISCTGSSSNIGAGYDVHWYQQLPGTAPRLLISYNSNRPSGVPDRFSGSKSGTSASLAITGLQAEDEADYYCQSYDRSLSGSVFGGGTQLTVLG
notes: hIgG4
EC50 [8]: > 100 nM
S/N [8]: 8.6 fold
EC50 [9]: 0.053 nM
S/N [9]: 102 fold
Kd [6]: 4.53 nM
koff [6]: 0.00332 s⁻¹
kon [6]: 733000 M⁻¹ s⁻¹
mAb bound at 300 nM [6]: 31 RU
t1/2 [6]: 3.5 min

B4: REGN10716 (antibody, human IgG4 S228P, kappa)
heavy: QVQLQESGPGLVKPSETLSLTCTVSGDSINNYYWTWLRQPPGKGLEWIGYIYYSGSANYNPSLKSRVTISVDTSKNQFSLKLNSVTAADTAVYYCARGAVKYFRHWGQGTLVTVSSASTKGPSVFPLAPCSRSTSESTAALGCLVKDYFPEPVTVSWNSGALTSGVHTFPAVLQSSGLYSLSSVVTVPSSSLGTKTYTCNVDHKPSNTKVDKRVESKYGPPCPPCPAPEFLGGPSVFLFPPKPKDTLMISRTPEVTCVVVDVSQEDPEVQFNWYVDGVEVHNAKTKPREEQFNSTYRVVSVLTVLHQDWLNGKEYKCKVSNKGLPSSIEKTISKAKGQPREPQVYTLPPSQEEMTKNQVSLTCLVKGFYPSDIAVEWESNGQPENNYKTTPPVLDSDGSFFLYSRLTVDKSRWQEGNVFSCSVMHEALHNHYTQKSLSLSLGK
light: EIVLTQSPGTLSLSPGERATLSCRASQTINHNNLAWYQQRPGQAPRLLIYGASNRATAIPDRFSGSGSGTDFTLTISRLEPEDFEVYSCQQYGSLPLTFGGGTKVEIKRTVAAPSVFIFPPSDEQLKSGTASVVCLLNNFYPREAKVQWKVDNALQSGNSQESVTEQDSKDSTYSLSSTLTLSKADYEKHKVYACEVTHQGLSSPVTKSFNRGEC
notes: hIgG4
% KILL, indirect cell killing, HEK293/hCACNG1 [1]: 95.1%
% KILL, indirect cell killing, HuSKM [1]: 61.7%
EC50/IC50, indirect cell killing, HEK293/hCACNG1 [1]: 0.00295 nM
EC50/IC50, indirect cell killing, HuSKM [1]: 0.34 nM
% KILL, indirect cell killing, C2C12 [2]: 99.9%
% KILL, indirect cell killing, HEK293/mCACNG1 [2]: 91.2%
EC50/IC50, indirect cell killing, C2C12 [2]: 0.0167 nM
EC50/IC50, indirect cell killing, HEK293/mCACNG1 [2]: 0.00893 nM
EC50 [3]: > 100 nM
S/N [3]: 35.9 fold
EC50 [4]: > 100 nM
S/N [4]: 21.4 fold
EC50 [5]: 13 nM
S/N [5]: 466 fold
EC50 [8]: > 100 nM
S/N [8]: 5.2 fold
EC50 [9]: 12 nM
S/N [9]: 81.1 fold
EC50 [10]: > 100 nM
S/N [10]: 2.2 fold
Kd [6]: 0.114 nM
koff [6]: 8.36e-05 s⁻¹
kon [6]: 730000 M⁻¹ s⁻¹
mAb bound at 300 nM [6]: 31 RU
t1/2 [6]: 138 min
EC50 [7]: > 100 nM
S/N [7]: 6.3 fold

B5: REGN14571-M3004 (antibody, human IgG1, kappa, N297Q)
heavy chain: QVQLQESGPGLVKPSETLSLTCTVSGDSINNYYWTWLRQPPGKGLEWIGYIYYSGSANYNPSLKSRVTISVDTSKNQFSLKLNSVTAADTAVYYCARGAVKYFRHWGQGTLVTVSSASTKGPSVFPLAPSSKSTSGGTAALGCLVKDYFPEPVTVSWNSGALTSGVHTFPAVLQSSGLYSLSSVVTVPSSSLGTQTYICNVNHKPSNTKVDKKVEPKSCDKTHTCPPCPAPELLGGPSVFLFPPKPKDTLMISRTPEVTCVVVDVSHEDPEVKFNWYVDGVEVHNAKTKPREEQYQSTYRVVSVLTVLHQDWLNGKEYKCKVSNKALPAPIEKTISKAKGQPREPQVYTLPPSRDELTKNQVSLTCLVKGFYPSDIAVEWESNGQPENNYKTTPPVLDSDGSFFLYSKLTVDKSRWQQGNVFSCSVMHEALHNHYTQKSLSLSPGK
light chain: EIVLTQSPGTLSLSPGERATLSCRASQTINHNNLAWYQQRPGQAPRLLIYGASNRATAIPDRFSGSGSGTDFTLTISRLEPEDFEVYSCQQYGSLPLTFGGGTKVEIKRTVAAPSVFIFPPSDEQLKSGTASVVCLLNNFYPREAKVQWKVDNALQSGNSQESVTEQDSKDSTYSLSSTLTLSKADYEKHKVYACEVTHQGLSSPVTKSFNRGEC
modifications: N297Q; DHT linker-payload M3004 conjugated, DAR about 4
EC50 of androgen receptor luciferase reporter activation (RLU) by the DHT conjugate REGN14571-M3004 in hCACNG1.AR.Luc LNCaP cells, 24 hours; concentration adjusted for DAR [11]: 7.83 nM
EC50 of androgen receptor luciferase reporter activation (RLU) by the DHT conjugate REGN14571-M3004 in hCACNG1.AR.Luc LNCaP cells, 48 hours; concentration adjusted for DAR [12]: 6.95 nM
EC50 of androgen receptor luciferase reporter activation (RLU) by the DHT conjugate REGN14571-M3004 in hCACNG1.AR.Luc LNCaP cells, 72 hours; concentration adjusted for DAR [13]: 5.44 nM

B6: H2aM31929N (antibody, V domains shown)
VH: QVQLVESGGGVVQPGRSLRLSCTASGITFRNYGMHWVRQAPGKGLEWVAVMWYDGSNKYYADSVKGRFTISGDNSKVYLQMNSLRAEDTAVYYCARRGTIRTAAPFDYWGQGTLVTVSS
VL: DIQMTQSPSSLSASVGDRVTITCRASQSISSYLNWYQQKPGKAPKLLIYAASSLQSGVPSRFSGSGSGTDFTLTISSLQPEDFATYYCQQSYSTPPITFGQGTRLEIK
notes: also called H2aM31929N/REGN10728 (lot H2aM31929N-L1)
% KILL, indirect cell killing, HEK293/hCACNG1 [1]: 95%
% KILL, indirect cell killing, HuSKM [1]: 96.3%
EC50/IC50, indirect cell killing, HEK293/hCACNG1 [1]: 0.00277 nM
EC50/IC50, indirect cell killing, HuSKM [1]: 0.031 nM
% KILL, indirect cell killing, C2C12 [2]: 7.5%
% KILL, indirect cell killing, HEK293/mCACNG1 [2]: 18.3%
EC50/IC50, indirect cell killing, C2C12 [2]: > 10 nM
EC50/IC50, indirect cell killing, HEK293/mCACNG1 [2]: > 1 nM
EC50 [3]: 6.2 nM
S/N [3]: 84 fold
S/N [4]: 1 fold
EC50 [5]: 1.9 nM
S/N [5]: 252 fold
Kd [6]: 0.745 nM
koff [6]: 0.000559 s⁻¹
kon [6]: 750000 M⁻¹ s⁻¹
mAb bound at 300 nM [6]: 25 RU
t1/2 [6]: 20.7 min
S/N [7]: 1.2 fold
binding result [7]: no binding (tested: 100 nM highest tested)
